Data on 94 variants can be found in the supplement of paper PMC10567573.

B1: FBF1 (parent)
chain: QLQCSPAELQAELLHSQARLAELE
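Also: lentivirally expressed fusions sorted by FACS into six bins by GFP to DsRed ratio, PSI derived from sequencing read proportions per bin multiplied by bin number.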

This data set covers variants of B1. Briefly: protein stability index of a GFP-peptide fusion (GPS, HEK-293T) (PSI 1-6); higher = more stable. As to conditions: c terminus: a fixed tail appended.
As to QLQCSPGELQAELLHSQARLAELE [A7G], the protein stability index came out at 2.52. As for QLQCSSAELQAELLHSQARLAELE [P6S], the figure is 3.26; as for QLQCSKAELQAELLHSQARLAELE [P6K], 4; as for QLQCSLAELQAELLHSQARLAELE [P6L], 2.43.

For QLQCSCAELQAELLHSQARLAELE [P6C], the protein stability index turned out to be 2.17. As to QLQCSIAELQAELLHSQARLAELE [P6I], the protein stability index came to 2.44.

Regarding QLQCSYAELQAELLHSQARLAELE [P6Y], the protein stability index is 2.14. As for QLQCSQAELQAELLHSQARLAELE [P6Q], the figure is 2.84; as for QLQCSNAELQAELLHSQARLAELE [P6N], 3.47; as for QLQCSVAELQAELLHSQARLAELE [P6V], 2.44. The same measure for QLQCSWAELQAELLHSQARLAELE [P6W]: 2.51; for QLQCSDAELQAELLHSQARLAELE [P6D]: 3.56; for QLQCSHAELQAELLHSQARLAELE [P6H]: 2.19. Turning to QLQCSMAELQAELLHSQARLAELE [P6M], the protein stability index is 2.31. The same measure for QLQCSRAELQAELLHSQARLAELE [P6R]: 3.1. The same measure for QLQCSFAELQAELLHSQARLAELE [P6F]: 2.28; for QLQCSGAELQAELLHSQARLAELE [P6G]: 2.24; for QLQCSTAELQAELLHSQARLAELE [P6T]: 3.66. As for QLQCSEAELQAELLHSQARLAELE [P6E], the figure is 2.6; as for QLQCSAAELQAELLHSQARLAELE [P6A], 2.85. As for QLQCSPAELQAPLLHSQARLAELE [E12P], the protein stability index turned out to be 4.04.

Turning to QLQCSPAELQARLLHSQARLAELE [E12R], the protein stability index is 3.59. Turning to QLQCSPAELQAKLLHSQARLAELE [E12K], the protein stability index was 3.38. As for QLQCSPAELQAALLHSQARLAELE [E12A], the figure is 2.47; as for QLQCSPAELQAVLLHSQARLAELE [E12V], 3.17. As for QLQCSPAELQALLLHSQARLAELE [E12L], the figure is 2.75. Turning to QLQCSPAELQAILLHSQARLAELE [E12I], the protein stability index was 2.57. As to QLQCSPAELQASLLHSQARLAELE [E12S], the protein stability index was 2.94.

Take QLQCSPAELQACLLHSQARLAELE [E12C]: the protein stability index is 3.05. As for QLQCSPAELQAFLLHSQARLAELE [E12F], the figure is 3.56. As for QLQCSPAELQANLLHSQARLAELE [E12N], the figure is 3.18; as for QLQCSPAELQAGLLHSQARLAELE [E12G], 3.65. The same measure for QLQCSPAELQAQLLHSQARLAELE [E12Q]: 2.67; for QLQCSPAELQAHLLHSQARLAELE [E12H]: 2.41; for QLQCSPAELQAMLLHSQARLAELE [E12M]: 3.49. For QLQCSPAELQAWLLHSQARLAELE [E12W], the protein stability index was 1.64. On to QLQCSPAELQADLLHSQARLAELE [E12D], for which the protein stability index came out at 3.33.

As to QLQCSPAELQATLLHSQARLAELE [E12T], the protein stability index is 3.62. The same measure for QLQCSPAELQAYLLHSQARLAELE [E12Y]: 3.22; for QLQCSPAELQAEFLHSQARLAELE [L13F]: 4.25.

With QLQCSPAELQAEWLHSQARLAELE [L13W], the protein stability index amounted to 4.13. With QLQCSPAELQAEKLHSQARLAELE [L13K], the protein stability index was 4.25. As for QLQCSPAELQAESLHSQARLAELE [L13S], the figure is 4.74; as for QLQCSPAELQAENLHSQARLAELE [L13N], 4.96; as for QLQCSPAELQAEALHSQARLAELE [L13A], 4.28.

As to QLQCSPAELQAEELHSQARLAELE [L13E], the protein stability index is 4.25. The same measure for QLQCSPAELQAEQLHSQARLAELE [L13Q]: 5.08; for QLQCSPAELQAEDLHSQARLAELE [L13D]: 5.39; for QLQCSPAELQAEYLHSQARLAELE [L13Y]: 4.52. For QLQCSPAELQAEHLHSQARLAELE [L13H], the protein stability index was 4.85. As for QLQCSPAELQAECLHSQARLAELE [L13C], the figure is 4.32; as for QLQCSPAELQAEPLHSQARLAELE [L13P], 4.73. As for QLQCSPAELQAETLHSQARLAELE [L13T], the figure is 4.7.

Take QLQCSPAELQAEVLHSQARLAELE [L13V]: the protein stability index is 4.2. The same measure for QLQCSPAELQAEMLHSQARLAELE [L13M]: 3.34; for QLQCSPAELQAERLHSQARLAELE [L13R]: 4.31; for QLQCSPAELQAEILHSQARLAELE [L13I]: 4.62.

In the case of QLQCSPAELQAEGLHSQARLAELE [L13G], the protein stability index amounted to 4.59. The same measure for QLQCPPAELQAELLHSQARLAELE [S5P]: 3.67; for QLQCKPAELQAELLHSQARLAELE [S5K]: 3.23. As for QLQCFPAELQAELLHSQARLAELE [S5F], the figure is 2.87; as for QLQCQPAELQAELLHSQARLAELE [S5Q], 3.69. Turning to QLQCGPAELQAELLHSQARLAELE [S5G], the protein stability index came to 2.79.

For QLQCHPAELQAELLHSQARLAELE [S5H], the protein stability index came to 3.01. In the case of QLQCMPAELQAELLHSQARLAELE [S5M], the protein stability index was 3.23. As for QLQCIPAELQAELLHSQARLAELE [S5I], the figure is 3.25; as for QLQCYPAELQAELLHSQARLAELE [S5Y], 3.01. The same measure for QLQCVPAELQAELLHSQARLAELE [S5V]: 3.03. The same measure for QLQCLPAELQAELLHSQARLAELE [S5L]: 3.13; for QLQCRPAELQAELLHSQARLAELE [S5R]: 2.66; for QLQCWPAELQAELLHSQARLAELE [S5W]: 2.64. In the case of QLQCTPAELQAELLHSQARLAELE [S5T], the protein stability index was found to be 3.85.

Take QLQCNPAELQAELLHSQARLAELE [S5N]: the protein stability index amounted to 2.94.

As for QLQCSPAELQAELEHSQARLAELE [L14E], the protein stability index was 4.39.

As to QLQCSPAELQAELHHSQARLAELE [L14H], the protein stability index worked out at 3.94. As for QLQCSPAELQAELIHSQARLAELE [L14I], the figure is 3.83. As for QLQCSPAELQAELNHSQARLAELE [L14N], the figure is 2.85; as for QLQCSPAELQAELKHSQARLAELE [L14K], 3.72; as for QLQCSPAELQAELMHSQARLAELE [L14M], 2.93. As for QLQCSPAELQAELDHSQARLAELE [L14D], the figure is 4.88; as for QLQCSPAELQAELAHSQARLAELE [L14A], 2.89; as for QLQCSPAELQAELYHSQARLAELE [L14Y], 3.21. In the case of QLQCSPAELQAELPHSQARLAELE [L14P], the protein stability index worked out at 4.8. With QLQCSPAELQAELCHSQARLAELE [L14C], the protein stability index came out at 3.3.

Regarding QLQCSPAELQAELGHSQARLAELE [L14G], the protein stability index amounted to 4.5.

For the variant QLQCSPAELQAELTHSQARLAELE [L14T], the protein stability index stood at 3.61. The same measure for QLQCSPAELQAELVHSQARLAELE [L14V]: 4.08. The same measure for QLQCSPAELQAELRHSQARLAELE [L14R]: 3.33; for QLQCSPAELQAELQHSQARLAELE [L14Q]: 3.59; for QLQCSPAELQAELWHSQARLAELE [L14W]: 2.93. The same measure for QLQCSPAELQAELSHSQARLAELE [L14S]: 3.67. With QLQCSPAELQAELFHSQARLAELE [L14F], the protein stability index is 3.27.

QLQCSPAELQAELLASQARLAELE [H15A]: the protein stability index came out at 3.78. The same measure for QLQCSPAELQAELLCSQARLAELE [H15C]: 2.88.
